In the RNAGym collection of RNA variant scans (doi:10.7554/elife.80360):

B1: CPEB3 Ribozyme (parent)
chain: GGGGGCCACAGCAGAAGCGUUCACGUCGCGGCCCCUGUCAGAUUCUGGUGAAUCUGCGAAUUCUGCUGU

Variants of: B1
Test: self-cleavage, relative activity (ratio to wild type); higher = more cleavage; co-transcriptional
Work on C32A G65U yielded a self-cleavage of 0.418.
Work on C32A G65C yielded a self-cleavage of 0.459.
Work on C32A C57A yielded a self-cleavage of 0.245.
Variant C32A G37U has a self-cleavage of 0.18.
Variant C32A G37A has a self-cleavage of 0.263.
G31A U67G gave a self-cleavage of 1.01.
G30U G41C gave a self-cleavage of 0.209.
G31A A52G showed a self-cleavage of 0.907.
With G31A A52U the self-cleavage was 0.888.
Variant C32G C34A has a self-cleavage of 0.303.
C32G C34G gave a self-cleavage of 0.212.
In the case of C32U A52C, the self-cleavage is reported as 0.913.
With C32G C63U the self-cleavage was 0.358.
Work on C32G C63G yielded a self-cleavage of 0.233.
G30U U61G gave a self-cleavage of 0.215.
For G30U U61A, the self-cleavage was 0.177.
Work on G30U C35U yielded a self-cleavage of 0.292.
G31C U44C gave a self-cleavage of 0.27.
Work on G31A C33G yielded a self-cleavage of 0.282.
In the case of G31A U64A, the self-cleavage is reported as 0.511.
With G31A U64C the self-cleavage was 0.757.
Work on C32A G50U yielded a self-cleavage of 0.707.
Variant G31U U62A has a self-cleavage of 0.27.
With G31U A42U the self-cleavage was 0.485.
G30C U53A showed a self-cleavage of 0.437.
With G31C G65C the self-cleavage was 0.185.
For G31C U69C, the self-cleavage was 0.451.
Variant G31C U69A has a self-cleavage of 0.381.
Work on C32A U44C yielded a self-cleavage of 0.482.
G30C A40U showed a self-cleavage of 0.296.
G31U G65A showed a self-cleavage of 0.517.
Variant G31C U67C has a self-cleavage of 0.358.
In the case of G30C C54A, the self-cleavage is reported as 0.346.
In the case of G31U C34U, the self-cleavage is reported as 0.363.
With G31A C57G the self-cleavage was 0.254.
C32G A42C showed a self-cleavage of 0.343.
For C32G A42G, the self-cleavage was 0.569.
Work on C32G A42U yielded a self-cleavage of 0.44.
Variant G31C U38A has a self-cleavage of 0.237.
G30U C45U showed a self-cleavage of 0.329.
Work on G30U C45A yielded a self-cleavage of 0.335.
In the case of G31A G65C, the self-cleavage is reported as 0.539.
For G31A G65A, the self-cleavage was 0.711.
Work on G31A G65U yielded a self-cleavage of 0.594.
C32U C33G showed a self-cleavage of 0.374.
With C32G G58C the self-cleavage was 0.478.
For C32G G58U, the self-cleavage was 0.622.
With G30A C54G the self-cleavage was 0.333.
C32G G47U showed a self-cleavage of 0.514.
In the case of G31C C35G, the self-cleavage is reported as 0.141.
Work on C32G C35U yielded a self-cleavage of 0.377.
Work on C32A U62G yielded a self-cleavage of 0.324.
With C32A U62A the self-cleavage was 0.281.
G31A A59G showed a self-cleavage of 0.811.
Work on C32G U53C yielded a self-cleavage of 0.217.
C32G U53G gave a self-cleavage of 0.382.
G30U A52U gave a self-cleavage of 0.342.
For C32G C45U, the self-cleavage was 0.573.
In the case of C32G C45A, the self-cleavage is reported as 0.381.
In the case of C32G G68U, the self-cleavage is reported as 0.815.
Work on C32A U38A yielded a self-cleavage of 0.791.
G30A G68U showed a self-cleavage of 1.
For G30A G68C, the self-cleavage was 1.01.
With G30C G41C the self-cleavage was 0.232.
G30C G41U showed a self-cleavage of 0.336.
In the case of G31C A40C, the self-cleavage is reported as 0.203.
G31C A40U showed a self-cleavage of 0.165.
With G31C U64G the self-cleavage was 0.251.
Variant G30A C66A has a self-cleavage of 0.559.
Work on G31U U53C yielded a self-cleavage of 0.354.
Variant G31U U44A has a self-cleavage of 0.577.
G31U U44G gave a self-cleavage of 0.3.
With G31C U55G the self-cleavage was 0.136.
Variant C32G U36C has a self-cleavage of 0.215.
Variant C32G U36A has a self-cleavage of 0.255.
C32U G37A gave a self-cleavage of 0.288.
Work on C32U G37C yielded a self-cleavage of 0.241.
With G30C G31U the self-cleavage was 0.224.
Work on G31C U53G yielded a self-cleavage of 0.139.
For G31C U53C, the self-cleavage was 0.237.
With G30C G56C the self-cleavage was 0.236.
Variant G30C G56U has a self-cleavage of 0.404.
Work on G31U A59C yielded a self-cleavage of 0.356.
In the case of G31U A59G, the self-cleavage is reported as 0.514.
